The source of these data is article PMC4072508, “Genome-Wide Prediction and Validation of Peptides That Bind Human Prosurvival Bcl-2 Proteins” (PLoS Computational Biology, 2014).

Common to all, as to experiment: peptide SPOT array, c-Myc-tagged receptor at 1 uM or 100 nM, anti-c-Myc-Cy3
One assay deals with Bcl-xL, Q07817.
The target of the next assay is T1, Mcl-1, Q07820.
T1 chain: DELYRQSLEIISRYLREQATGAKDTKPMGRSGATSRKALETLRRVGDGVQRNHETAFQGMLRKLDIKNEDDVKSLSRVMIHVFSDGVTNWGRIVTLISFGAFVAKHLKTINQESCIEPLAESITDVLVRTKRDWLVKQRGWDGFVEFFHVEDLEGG

The next assay deals with T2, Bfl-1, Q16548.
T2 chain: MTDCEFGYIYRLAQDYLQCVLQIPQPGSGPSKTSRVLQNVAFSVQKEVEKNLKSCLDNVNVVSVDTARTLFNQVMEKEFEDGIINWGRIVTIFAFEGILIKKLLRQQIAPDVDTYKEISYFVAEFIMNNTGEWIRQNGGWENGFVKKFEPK

Bcl-xL, Q07817, sequence (Q07817 1-209): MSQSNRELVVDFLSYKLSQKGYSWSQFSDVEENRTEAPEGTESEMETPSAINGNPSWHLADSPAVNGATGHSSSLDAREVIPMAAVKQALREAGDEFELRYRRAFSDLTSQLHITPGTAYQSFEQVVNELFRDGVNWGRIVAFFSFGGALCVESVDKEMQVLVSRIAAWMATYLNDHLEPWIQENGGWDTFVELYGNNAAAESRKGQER

In the case of FKAWGKFGGADCRYADEMKEIQERQR [PURB], the SPOT signal as a fraction of Bim BH3's signal on the same receptor and array with Bcl-xL, Q07817 is 0.66; with Mcl-1, Q07820, 0.83; with Bfl-1, Q16548, 0.76.

For WTLFVYTKGNFRMIGDDLVNSYHLLL [RBL1], the SPOT signal as a fraction of Bim BH3's signal on the same receptor and array was 0.13 in the assay with Bcl-xL, Q07817; 0.15 with Mcl-1, Q07820; 0.12 in the assay with Bfl-1, Q16548.

In the case of RKDAELLCWDDRQSGYPLWSLGREVT [WRAP53], the SPOT signal as a fraction of Bim BH3's signal on the same receptor and array in the assay with Bcl-xL, Q07817 amounted to 0.06; with Mcl-1, Q07820, 0.04; with Bfl-1, Q16548 it was 0.04.

As for LTETSLISGNLHRIGDITSCSVLWLN, the SPOT signal as a fraction of Bim BH3's signal on the same receptor and array with Bcl-xL, Q07817 stood at 0.06; with Mcl-1, Q07820 it was 0.04; with Bfl-1, Q16548, 0.04.

Take SFLSAHCASHLAWFLDSLTSLSQRLQ [TMEM214]: the SPOT signal as a fraction of Bim BH3's signal on the same receptor and array was 0.08 with Bcl-xL, Q07817; 0.07 with Mcl-1, Q07820; 0.08 with Bfl-1, Q16548.

Turning to WLKGDILGEKLVNLLDCLCNEDLESR [RNF160], the SPOT signal as a fraction of Bim BH3's signal on the same receptor and array in the assay with Bcl-xL, Q07817 turned out to be 0.07; with Mcl-1, Q07820 it was 0.06; with Bfl-1, Q16548 it was 0.05.

Take SDIRDDISEQVRHVGRTVRGHPRKKL [TMEM184C]: the SPOT signal as a fraction of Bim BH3's signal on the same receptor and array with Bcl-xL, Q07817 turned out to be 0.92; with Mcl-1, Q07820, 0.32; with Bfl-1, Q16548, 0.29.

Regarding LDFTFVCPTEDIAFGDRLEEFRSINT, the SPOT signal as a fraction of Bim BH3's signal on the same receptor and array with Bcl-xL, Q07817 came out at 0.06; in the assay with Mcl-1, Q07820 it was 0.04; in the assay with Bfl-1, Q16548 it was 0.03.

As for LTETSLISGNDHRIGDITSCSVLWLN, the SPOT signal as a fraction of Bim BH3's signal on the same receptor and array is 0.06 with Bcl-xL, Q07817; 0.03 with Mcl-1, Q07820; 0.04 with Bfl-1, Q16548.

With LDFTFVCPTEIIAFGDRLEEFRSINT, the SPOT signal as a fraction of Bim BH3's signal on the same receptor and array with Bcl-xL, Q07817 was found to be 0.06; with Mcl-1, Q07820 it was 0.04; in the assay with Bfl-1, Q16548, 0.03.

As for VHKHSRLAEVLQLGLDILPQYKQEAP [KCNH1], the SPOT signal as a fraction of Bim BH3's signal on the same receptor and array with Bcl-xL, Q07817 amounted to 0.12; with Mcl-1, Q07820 it was 0.14; with Bfl-1, Q16548 it was 0.07.

For the molecule ADAIRPRCVEDRHLCDDFINGNKKKW, the SPOT signal as a fraction of Bim BH3's signal on the same receptor and array is 0.15 with Bcl-xL, Q07817; 0.06 with Mcl-1, Q07820; 0.07 with Bfl-1, Q16548.

In the case of LSIIYTLVEIFQNIGDTNLADFTAGL [SLC26A4], the SPOT signal as a fraction of Bim BH3's signal on the same receptor and array came out at 0.06 with Bcl-xL, Q07817; 0.07 in the assay with Mcl-1, Q07820; 0.03 with Bfl-1, Q16548.

Take KGTAVAICRRLGIFLDTEDVAGKAYT [ATP2A3]: the SPOT signal as a fraction of Bim BH3's signal on the same receptor and array with Bcl-xL, Q07817 turned out to be 0.16; with Mcl-1, Q07820, 0.16; with Bfl-1, Q16548, 0.09.

For PDKRLTLSQIYQYVADNFPFYNKSKA, the SPOT signal as a fraction of Bim BH3's signal on the same receptor and array is 1.74 with Bcl-xL, Q07817; 0.56 with Mcl-1, Q07820; 0.56 with Bfl-1, Q16548.

Regarding APEEDFFSIHIRIVGDWTEGLFNACG [CYBB], the SPOT signal as a fraction of Bim BH3's signal on the same receptor and array with Bcl-xL, Q07817 stood at 0.06; with Mcl-1, Q07820 it was 0.09; with Bfl-1, Q16548, 0.04.

As to ADAIRPRCVELRHLLDDFINGNKKKW, the SPOT signal as a fraction of Bim BH3's signal on the same receptor and array in the assay with Bcl-xL, Q07817 was 0.56; with Mcl-1, Q07820 it was 0.26; with Bfl-1, Q16548, 0.31.

In the case of LNLLMISVAFDRVIGDQLEKLCDSLL [SLC38A8], the SPOT signal as a fraction of Bim BH3's signal on the same receptor and array with Bcl-xL, Q07817 was 0.05; in the assay with Mcl-1, Q07820 it was 0.04; with Bfl-1, Q16548, 0.04.

On to TGSLCEIATTLSFEGDGFLWVKSGSV [CRB1], for which the SPOT signal as a fraction of Bim BH3's signal on the same receptor and array was 0.06 in the assay with Bcl-xL, Q07817; 0.04 with Mcl-1, Q07820; 0.03 in the assay with Bfl-1, Q16548.

Regarding AELRLFLAQRDRWLCDSCPASRATCV [NBEAL2], the SPOT signal as a fraction of Bim BH3's signal on the same receptor and array in the assay with Bcl-xL, Q07817 amounted to 0.34; with Mcl-1, Q07820 it was 0.5; with Bfl-1, Q16548 it was 0.33.

For MQTLSELAKSDQDMADRCLLVLHLEV [EXOC4], the SPOT signal as a fraction of Bim BH3's signal on the same receptor and array came to 0.05 in the assay with Bcl-xL, Q07817; 0.04 with Mcl-1, Q07820; 0.04 with Bfl-1, Q16548.

In the case of TETKATFGVHDKIVGDWTERFRDLLL [NOX4], the SPOT signal as a fraction of Bim BH3's signal on the same receptor and array in the assay with Bcl-xL, Q07817 was 0.05; with Mcl-1, Q07820 it was 0.05; with Bfl-1, Q16548, 0.07.

For PVESSWIAPELRLQSDDILPLGKDSG [DHX30], the SPOT signal as a fraction of Bim BH3's signal on the same receptor and array in the assay with Bcl-xL, Q07817 amounted to 0.05; with Mcl-1, Q07820 it was 0.04; with Bfl-1, Q16548, 0.04.

For the molecule PDKRLTLSQIDQYVADNFPFYNKSKA, the SPOT signal as a fraction of Bim BH3's signal on the same receptor and array came out at 0.84 in the assay with Bcl-xL, Q07817; 0.39 with Mcl-1, Q07820; 0.42 with Bfl-1, Q16548.

As to RLRQLGVAKKFGVLLDNFKGKRIVLV [PPAT], the SPOT signal as a fraction of Bim BH3's signal on the same receptor and array with Bcl-xL, Q07817 was 1.27; in the assay with Mcl-1, Q07820, 0.93; with Bfl-1, Q16548, 0.69.

Turning to VTLLSEVEKMLSNFGDCVQYKEIVKN [SYNE1], the SPOT signal as a fraction of Bim BH3's signal on the same receptor and array with Bcl-xL, Q07817 turned out to be 0.11; with Mcl-1, Q07820, 0.08; with Bfl-1, Q16548, 0.06.

As for GSPDSMFGISLAVLLDLNQDGFPDIA [ITGA7], the SPOT signal as a fraction of Bim BH3's signal on the same receptor and array with Bcl-xL, Q07817 worked out at 0.07; with Mcl-1, Q07820 it was 0.04; in the assay with Bfl-1, Q16548 it was 0.07.

For the molecule NDDTPWIARTDDNLADELTAILSAPA [GBP6], the SPOT signal as a fraction of Bim BH3's signal on the same receptor and array with Bcl-xL, Q07817 amounted to 0.04; in the assay with Mcl-1, Q07820 it was 0.04; with Bfl-1, Q16548, 0.03.
